Data published in patent EP1942187B1.

Key:
Experiment in all cases: cell-based or functional assay
IL10Rb (CRF2-4) (human) = IL10Rb (CRF2-4) (human) (UniProt Q08334)
human zcytor19 (human) = molecular target: human zcytor19 (human)
[1] = molecular target: zcytoR19 and IL10Rb (CRF2-4) coexpressed on BHK cells (human)

Chain of IL10Rb (CRF2-4) (human) (Q08334 20-325 limits assumed, form in doubt): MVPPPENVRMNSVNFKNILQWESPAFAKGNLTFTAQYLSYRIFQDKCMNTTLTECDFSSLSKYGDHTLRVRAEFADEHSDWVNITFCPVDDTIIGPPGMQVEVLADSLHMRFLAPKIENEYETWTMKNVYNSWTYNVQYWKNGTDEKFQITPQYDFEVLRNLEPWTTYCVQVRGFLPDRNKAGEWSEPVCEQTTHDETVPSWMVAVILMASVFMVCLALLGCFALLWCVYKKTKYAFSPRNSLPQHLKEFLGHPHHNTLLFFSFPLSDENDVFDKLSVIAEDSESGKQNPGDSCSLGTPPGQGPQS

An ISRE-luciferase fold induction; wild-type 293 cells; Zcyto20 0.01 ng/ml; + IL10Rb neutralizing antibody (8 ug/ml) (fold induction) (IL10Rb (CRF2-4) (human)) of 0.8, an ISRE-luciferase fold induction; wild-type 293 cells; Zcyto20 0.01 ng/ml; no antibody (fold induction) (IL10Rb (CRF2-4) (human)) of 1 and an ISRE-luciferase fold induction; wild-type 293 cells; Zcyto20 0.1 ng/ml; + IL10Rb neutralizing antibody (8 ug/ml) (fold induction) (IL10Rb (CRF2-4) (human)) of 1 were found for zcyto20 (ligand) in this work. The ISRE-luciferase fold induction; wild-type 293 cells; Zcyto20 0.1 ng/ml; no antibody (fold induction) (IL10Rb (CRF2-4) (human)) was 1, the ISRE-luciferase fold induction; wild-type 293 cells; Zcyto20 1 ng/ml; + IL10Rb neutralizing antibody (8 ug/ml) (fold induction) (IL10Rb (CRF2-4) (human)) was 0.9 and the ISRE-luciferase fold induction; wild-type 293 cells; Zcyto20 1 ng/ml; no antibody (fold induction) (IL10Rb (CRF2-4) (human)) was 1. The ISRE-luciferase fold induction; wild-type 293 cells; Zcyto20 10 ng/ml; + IL10Rb neutralizing antibody (8 ug/ml) (fold induction) (IL10Rb (CRF2-4) (human)) was 0.9, the ISRE-luciferase fold induction; wild-type 293 cells; Zcyto20 10 ng/ml; no antibody (fold induction) (IL10Rb (CRF2-4) (human)) was 4 and the ISRE-luciferase fold induction; wild-type 293 cells; Zcyto20 100 ng/ml; + IL10Rb neutralizing antibody (8 ug/ml) (fold induction) (IL10Rb (CRF2-4) (human)) was 0.8. The ISRE-luciferase fold induction; wild-type 293 cells; Zcyto20 100 ng/ml; no antibody (fold induction) (IL10Rb (CRF2-4) (human)) was 8.4, the ISRE-luciferase fold induction; zcytoR19-overexpressing 293 cells; Zcyto20 0.01 ng/ml; + IL10Rb neutralizing antibody (8 ug/ml) (fold induction) (IL10Rb (CRF2-4) (human)) was 1.2 and the ISRE-luciferase fold induction; zcytoR19-overexpressing 293 cells; Zcyto20 0.01 ng/ml; no antibody (fold induction) (IL10Rb (CRF2-4) (human)) was 1.1. The ISRE-luciferase fold induction; zcytoR19-overexpressing 293 cells; Zcyto20 0.1 ng/ml; + IL10Rb neutralizing antibody (8 ug/ml) (fold induction) (IL10Rb (CRF2-4) (human)) was 1.1, the ISRE-luciferase fold induction; zcytoR19-overexpressing 293 cells; Zcyto20 0.1 ng/ml; no antibody (fold induction) (IL10Rb (CRF2-4) (human)) was 6 and the ISRE-luciferase fold induction; zcytoR19-overexpressing 293 cells; Zcyto20 1 ng/ml; + IL10Rb neutralizing antibody (8 ug/ml) (fold induction) (IL10Rb (CRF2-4) (human)) was 1.3. It also gave an ISRE-luciferase fold induction; zcytoR19-overexpressing 293 cells; Zcyto20 1 ng/ml; no antibody (fold induction) (IL10Rb (CRF2-4) (human)) of 68, an ISRE-luciferase fold induction; zcytoR19-overexpressing 293 cells; Zcyto20 10 ng/ml; + IL10Rb neutralizing antibody (8 ug/ml) (fold induction) (IL10Rb (CRF2-4) (human)) of 23 and an ISRE-luciferase fold induction; zcytoR19-overexpressing 293 cells; Zcyto20 10 ng/ml; no antibody (fold induction) (IL10Rb (CRF2-4) (human)) of 97. It also gave an ISRE-luciferase fold induction; zcytoR19-overexpressing 293 cells; Zcyto20 100 ng/ml; + IL10Rb neutralizing antibody (8 ug/ml) (fold induction) (IL10Rb (CRF2-4) (human)) of 60, an ISRE-luciferase fold induction; zcytoR19-overexpressing 293 cells; Zcyto20 100 ng/ml; no antibody (fold induction) (IL10Rb (CRF2-4) (human)) of 91 and an ISRE-luciferase fold induction; 293 cells transfected with ISRE-Luc./Zcytor19; Zcyto20 125ng/ml (fold induction) (human zcytor19 (human)) of 125. For the same substance, the ISRE-luciferase fold induction; BHK cells transfected with zcytoR19 alone; zcyto20 0.001 ng/ml (fold induction) (human zcytor19 (human)) was 1.4, the ISRE-luciferase fold induction; BHK cells transfected with zcytoR19 alone; zcyto20 0.01 ng/ml (fold induction) (human zcytor19 (human)) was 1.2 and the ISRE-luciferase fold induction; BHK cells transfected with zcytoR19 alone; zcyto20 0.1 ng/ml (fold induction) (human zcytor19 (human)) was 1.25. It also gave an ISRE-luciferase fold induction; BHK cells transfected with zcytoR19 alone; zcyto20 1 ng/ml (fold induction) (human zcytor19 (human)) of 1.3, an ISRE-luciferase fold induction; BHK cells transfected with zcytoR19 alone; zcyto20 10 ng/ml (fold induction) (human zcytor19 (human)) of 2.1 and an ISRE-luciferase fold induction; BHK cells transfected with zcytoR19 alone; zcyto20 100 ng/ml (fold induction) (human zcytor19 (human)) of 2.2. The ISRE-luciferase fold induction; BHK cells transfected with zcytoR19 alone; zcyto20 1000 ng/ml (fold induction) (human zcytor19 (human)) was 2.25, the ISRE-luciferase fold induction; BHK cells transfected with zcytoR19 and IL10Rb (CRF2-4); zcyto20 0.001 ng/ml (fold induction) [1] was 1.5 and the ISRE-luciferase fold induction; BHK cells transfected with zcytoR19 and IL10Rb (CRF2-4); zcyto20 0.01 ng/ml (fold induction) [1] was 1.6. For the same substance, the ISRE-luciferase fold induction; BHK cells transfected with zcytoR19 and IL10Rb (CRF2-4); zcyto20 0.1 ng/ml (fold induction) [1] was 2.1, the ISRE-luciferase fold induction; BHK cells transfected with zcytoR19 and IL10Rb (CRF2-4); zcyto20 1 ng/ml (fold induction) [1] was 2.5 and the ISRE-luciferase fold induction; BHK cells transfected with zcytoR19 and IL10Rb (CRF2-4); zcyto20 10 ng/ml (fold induction) [1] was 2.4. It also gave an ISRE-luciferase fold induction; BHK cells transfected with zcytoR19 and IL10Rb (CRF2-4); zcyto20 100 ng/ml (fold induction) [1] of 2.6 and an ISRE-luciferase fold induction; BHK cells transfected with zcytoR19 and IL10Rb (CRF2-4); zcyto20 1000 ng/ml (fold induction) [1] of 2.1.
